# In patent US20110014669A1, “Production of 1,4 Butanediol in a Microorganism” (Microbia, Inc., priority 2009, published 2011):
# B1: YeaUEc: Enzyme candidate for BDO biosynthetic pathway step A5, SEQ ID NO. 59 (protein, listed as Escherichia coli)
# chain: MMKTMRIAAIPGDGIGKEVLPEGIRVLQAAAERWGFALSFEQMEWASCEYYSHHGKMMPDDWHEQLSRFDAIYFGAVGWPDTVPDHISLWGSLLKFRREFDQYVNLRPVRLFPGVPCPLAGKQPGDIDFYVVRENTEGEYSSLGGRVNEGTEHEVVIQESVFTRRGVDRILRYAFELAQSRPRKTLTSATKSNGLAISMPYWDERVEAMAENYPEIRWDKQHIDILCARFVMQPERFDVVVASNLFGDILSDLGPACTGTIGIAPSANLNPERTFPSLFEPVHGSAPDIYGKNIANPIATIWAGAMMLDFLGNGDERFQQAHNGILAAIEEVIAHGPKTPDMKGNATTPQVADAICKIILR
# B2: PoxBEc: Enzyme candidate for BDO biosynthetic pathway step A5, SEQ ID NO. 60 (protein, listed as Escherichia coli)
# chain: MKQTVAAYIAKTLESAGVKRIWGVTGDSLNGLSDSLNRMGTIEWMSTRHEEVAAFAAGAEAQLSGELAVCAGSCGPGNLHLINGLFDCHRNHVPVLAIAAHIPSSEIGSGYFQETHPQELFRECSHYCELVSSPEQIPQVLAIAMRKAVLNRGVSVVVLPGDVALKPAPEGATMHWYHAPQPVVTPEEEELRKLAQLLRYSSNIALMCGSGCAGAHKELVEFAGKIKAPIVHALRGKEHVEYDNPYDVGMTGLIGFSSGFHTMMNADTLVLLGTQFPYRAFYPTDAKIIQIDINPASIGAHSKVDMALVGDIKSTLRALLPLVEEKADRKFLDKALEDYRDARKGLDDLAKPSEKAIHPQYLAQQISHFAADDAIFTCDVGTPTVWAARYLKMNGKRRLLGSFNHGSMANAMPQALGAQATEPERQVVAMCGDGGFSMLMGDFLSVVQMKLPVKIVVFNNSVLGFVAMEMKAGGYLTDGTELHDTNFARIAEACGITGIRVEKASEVDEALQRAFSIDGPVLVDVVVAKEELAIPPQIKLEQAKGFSLYMLRAIISGRGDEVIELAKTNWLR
# B3: PanDEc: Enzyme candidate for BDO biosynthetic pathway step A5, SEQ ID NO. 61 (protein, listed as Escherichia coli)
# chain: MIRTMLQGKLHRVKVTHADLHYEGSCAIDQDFLDAAGILENEAIDIWNVTNGKRFSTYAIAAERGSRIISVNGAAAHCASVGDIVIIASFVTMPDEEARTWRPNVAYFEGDNEMKRTAKAIPVQVA
# B4: LdcCEc: Enzyme candidate for BDO biosynthetic pathway step A5, SEQ ID NO. 62 (protein, listed as Escherichia coli)
# chain: MNIIAIMGPHGVFYKDEPIKELESALVAQGFQIIWPQNSVDLLKFIEHNPRICGVIFDWDEYSLDLCSDINQLNEYLPLYAFINTHSTMDVSVQDMRMALWFFEYALGQAEDIAIRMRQYTDEYLDNITPPFTKALFTYVKERKYTFCTPGHMGGTAYQKSPVGCLFYDFFGGNTLKADVSISVTELGSLLDHTGPHLEAEEYIARTFGAEQSYIVTNGTSTSNKIVGMYAAPSGSTLLIDRNCHKSLAHLLMMNDVVPVWLKPTRNALGILGGIPRREFTRDSIEEKVAATTQAQWPVHAVITNSTYDGLLYNTDWIKQTLDVPSIHFDSAWVPYTHFHPIYQGKSGMSGERVAGKVIFETQSTHKMLAALSQASLIHIKGEYDEEAFNEAFMMHTTTSPSYPIVASVETAAAMLRGNPGKRLINRSVERALHFRKEVQRLREESDGWFFDIWQPPQVDEAECWPVAPGEQWHGFNDADADHMFLDPVKVTILTPGMDEQGNMSEEGIPAALVAKFLDERGIVVEKTGPYNLLFLFSIGIDKTKAMGLLRGLTEFKRSYDLNLRIKNMLPDLYAEDPDFYRNMRIQDLAQGIHKLIRKHDLPGLMLRAFDTLPEMIMTPHQAWQRQIKGEVETIALEQLVGRVSANMILPYPPGVPLLMPGEMLTKESRTVLDFLLMLCSVGQHYPGFETDIHGAKQDEDGVYRVRVLKMAG
# B5: SpeFEc: Enzyme candidate for BDO biosynthetic pathway step A5, SEQ ID NO. 63 (protein, listed as Escherichia coli)
# chain: MSKLKIAVSDSCPDCFTTQRECIYINESRNIDVAAIVLSLNDVTCGKLDEIDATGYGIPVFIATENQERVPAEYLPRISGVFENCESRREFYGRQLETAASHYETQLRPPFFRALVDYVNQGNSAFDCPGHQGGEFFRRHPAGNQFVEYFGEALFRADLCNADVAMGDLLIHEGAPCIAQQHAAKVFNADKTYFVLNGTSSSNKVVLNALLTPGDLVLFDRNNHKSNHHGALLQAGATPVYLETARNPYGFIGGIDAHCFEESYLRELIAEVAPQRAKEARPFRLAVIQLGTYDGTIYNARQVVDKIGHLCDYILFDSAWVGYEQFIPMMADCSPLLLDLNENDPGILVTQSVHKQQAGFSQTSQIHKKDSHIKGQQRYVPHKRMNNAFMMHASTSPFYPLFAALNINAKMHEGVSGRNMWMDCVVNGINARKLILDNCQHIRPFVPELVDGKPWQSYETAQIAVDLRFFQFVPGEHWHSFEGYAENQYFVDPCKLLLTTPGIDARNGEYEAFGVPATILANFLRENGVVPEKCDLNSILFLLTPAEDMAKLQQLVALLVRFEKLLESDAPLAEVLPSIYKQHEERYAGYTLRQLCQEMHDLYARHNVKQLQKEMFRKEHFPRVSMNPQEANYAYLRGEVELVRLPDAEGRIAAEGALPYPPGVLCVVPGEIWGGAVLRYFSALEEGINLLPGFAPELQGVYIEEHDGRKQVWCYVIKPRDAQSTLLKGEKL
# B6: GadBEc: Enzyme candidate for BDO biosynthetic pathway step A5, SEQ ID NO. 64 (protein, listed as Escherichia coli)
# chain: MDKKQVTDLRSELLDSRFGAKSISTIAESKRFPLHEMRDDVAFQIINDELYLDGNARQNLATFCQTWDDENVHKLMDLSINKNWIDKEEYPQSAAIDLRCVNMVADLWHAPAPKNGQAVGTNTIGSSEACMLGGMAMKWRWRKRMEAAGKPTDKPNLVCGPVQICWHKFARYWDVELREIPMRPGQLFMDPKRMIEACDENTIGVVPTFGVTYTGNYEFPQPLHDALDKFQADTGIDIDMHIDAASGGFLAPFVAPDIVWDFRLPRVKSISASGHKFGLAPLGCGWVIWRDEEALPQELVFNVDYLGGQIGTFAINFSRPAGQVIAQYYEFLRLGREGYTKVQNASYQVAAYLADEIAKLGPYEFICTGRPDEGIPAVCFKLKDGEDPGYTLYDLSERLRLRGWQVPAFTLGGEATDIVVMRIMCRRGFEMDFAELLLEDYKASLKYLSDHPKLQGIAQQNSFKHT
# B7: MenDEc: Enzyme candidate for BDO biosynthetic pathway step A5, SEQ ID NO. 65 (protein, listed as Escherichia coli)
# chain: MSVSAFNRRWAAVILEALTRHGVRHICIAPGSRSTPLTLAAAENSAFIHHTHFDERGLGHLALGLAKVSKQPVAVIVTSGTAVANLYPALIEAGLTGEKLILLTADRPPELIDCGANQAIRQPGMFASHPTHSISLPRPTQDIPARWLVSTIDHALGTLHAGGVHINCPFAEPLYGEMDDTGLSWQQRLGDWWQDDKPWLREAPRLESEKQRDWFFWRQKRGVVVAGRMSAEEGKKVALWAQTLGWPLIGDVLSQTGQPLPCADLWLGNAKATSELQQAQIVVQLGSSLTGKRLLQWQASCEPEEYWIVDDIEGRLDPAHHRGRRLIANIADWLELHPAEKRQPWCVEIPRLAEQAMQAVIARRDAFGEAQLAHRICDYLPEQGQLFVGNSLVVRLIDALSQLPAGYPVYSNRGASGIDGLLSTAAGVQRASGKPTLAIVGDLSALYDLNALALLRQVSAPLVLIVVNNNGGQIFSLLPTPQSERERFYLMPQNVHFEHAAAMFELKYHRPQNWQELETAFADAWRTPTTTVIEMVVNDTDGAQTLQQLLAQVSHL
# Test system: 5-hydroxy-2-oxopentanoate
# Test: Enzyme assay, decarboxylase (step A5), aldehyde dehydrogenase linked reaction
# Assay type: biochemical
# Set-up: key: +: measureable activity detected in the assay; −: no measurable activity detected in the assay
# Conditions: BDO biosynthetic pathway step A5
# Procedure: Enzyme expression and crude lysate preparation. The enzymatic activity of each candidate enzyme is evaluated, first in E. coli and subsequently in C. glutamicum. It will be apparent to one of skill in the art that the expression and lysate preparations may need to be modified depending on the host cell and recombinant gene of interest.
# E. coli: E. coli strains transformed with expression clones, for example, pUC18 or MB4124 based clones having a medium strong constitutive promoter regulating the recombinant gene of interest, are grown aerobically in LB medium (Difco) containing the appropriate antibiotic(s). At an OD600 of 0.5, IPTG is added to a final concentration of 0.25 mM. The cultures are grown to a final OD600 of 1.5 at which time the cells are collected and harvested by centrifugation. Cell pellets are resuspended in BugBuster (Novagen) reagent containing benzonase and lysozyme. Alternatively, E. coli strains transformed with expression clones, are grown overnight aerobically at 37° C. in BHI containing the appropriate antibiotic(s). 300 μL of fresh overnight culture is used to inoculate 2.7 mL BHI containing 0.25 mM IPTG and the appropriate antibiotic. The cultures are grown aerobically for 4-5 hours at 37° C. at which time the cells are collected and harvested by centrifugation. Cell pellets are frozen at −80° C. for at least 15 minutes, then thawed and resuspended in BugBuster (Novagen) reagent. Lysis and lysate collection are performed according to the manufacturer's instructions and, for example, may involve use of a sonicator and/or French press. Cleared lysates are stored on ice until enzyme assays are performed.
# C. glutamicum: C. glutamicum strains transformed with MB4124 expression clones containing the recombinant gene of interest are grown aerobically in BHI broth supplemented with the proper antibiotic(s). At an OD600 of 0.5, IPTG is added to a final concentration of 0.25 mM. The cultures are grown to a final OD600 of 1.5 at which time the cells are collected and harvested by centrifugation. The pellet is washed once in one volume of water and resuspended in lysis buffer (1.0 ml 1.0 M HEPES buffer, pH 7.5, 0.5 ml 1M KOH, 10 μl 0.5M EDTA, protease inhibitor cocktail, water to 5 ml; the final pH will vary depending on the individual enzyme being tested) and one volume of 0.1 mm acid washed glass beads. The mixture is repeatedly alternately vortexed and held on ice for 15 seconds, eight times. After centrifugation for 5 min at 4,000 rpm, the supernatant lysate is removed and respun for 20 min at 10,000 rpm. Alternatively, C. glutamicum strains transformed with MB4124 expression clones containing the recombinant gene of interest are grown aerobically overnight in BHI broth supplemented with the proper antibiotic(s). Five mL of fresh overnight culture is used to inoculate 200 mL BHI containing 0.25 mM IPTG and the appropriate antibiotic. The cultures are grown aerobically at 30° C. for 5-7 hours at which time the cells are collected and harvested by centrifugation at 4° C. The pellet is resuspended in 15 mL ice cold 39 mM KH2PO4, 61 mM K2HPO4, 0.5 M KCl and lysed using a BioSpec BeadBeater and following the manufacturer's instructions. The lysate is centrifuged at 16,000 RPM at 4° C. for 30 minutes and the supernatant retained on ice as the extract.
# Protein Assays. Protein concentrations in lysates are determined according to the methods of Bradford et al. (Anal. Biochem. 72:248-254 [1976]) or by the method of Smith et al. (Anal. Biochem. 150(1):76-85 [1985]) and lysates are assayed according to the methods below.
# Enzyme Assays. Enzyme assays are performed on the cell lysates prepared above. The activity for each recombinant enzyme is compared to a lysate from a vector only control culture which is generated in a fashion identical to the recombinant enzyme lysate. […]
molecule,measurement,value
B1,Enzyme Assay,−
B2,Enzyme Assay,−
B3,Enzyme Assay,−
B4,Enzyme Assay,−
B5,Enzyme Assay,−
B6,Enzyme Assay,−
B7,Enzyme Assay,−
